# Results: doi:10.1101/787119 (bioRxiv, 2019)
# B1: Full-length human dehydrodolichyl diphosphate synthase (DHDDS) (enzyme, UniProt Q86SQ9 1-333, looked up)
# chain: MSWIKEGELSLWERFCANIIKAGPMPKHIAFIMDGNRRYAKKCQVERQEGHSQGFNKLAETLRWCLNLGILEVTVYAFSIENFKRSKSEVDGLMDLARQKFSRLMEEKEKLQKHGVCIRVLGDLHLLPLDLQELIAQAVQATKNYNKCFLNVCFAYTSRHEISNAVREMAWGVEQGLLDPSDISESLLDKCLYTNRSPHPDILIRTSGEVRLSDFLLWQTSHSCLVFQPVLWPEYTFWNLFEAILQFQMNHSVLQKARDMYAEERKRQQLERDQATVTEQLLREGLQASGDAQLRRTRLHKLSARREERVQGFLQALELKRADWLARLGTASA
# Target: the molecule itself
# Test: SEC-MALS
protein,measurement,value
B1,stoichiometry N,2
